Changes are numbered by the printed parent chain.
Legend:
[1] = biological target: T1, cell surface LAMP1 on Patient-derived tumor xenografts and tumor cell lines (Homo sapiens, UniProt P11279); test: Antibody binding capacity (ABC) by FACS on patient-derived xenografts and tumor cell lines
T1 construct: endogenous in cells; host or cells: enzymatically dissociated patient-derived xenograft tumour cells (e.g. CR-IGR-034P, LUN-NIC-014P, BRE-IGR-0159) and tumour cell lines
T1 sequence (P11279 29-417): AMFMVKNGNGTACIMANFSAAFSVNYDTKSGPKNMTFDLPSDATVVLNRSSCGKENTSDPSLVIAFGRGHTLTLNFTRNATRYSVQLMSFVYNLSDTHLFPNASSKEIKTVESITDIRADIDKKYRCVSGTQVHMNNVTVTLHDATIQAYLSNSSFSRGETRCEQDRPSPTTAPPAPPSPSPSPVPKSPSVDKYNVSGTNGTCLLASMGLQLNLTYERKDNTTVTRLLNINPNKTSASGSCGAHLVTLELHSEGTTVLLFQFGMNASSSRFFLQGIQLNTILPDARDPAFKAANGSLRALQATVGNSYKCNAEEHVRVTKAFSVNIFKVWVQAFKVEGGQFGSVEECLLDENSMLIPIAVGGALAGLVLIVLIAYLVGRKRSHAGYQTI
Description: Antibody binding capacity of antibody was determined using Mouse IgG Calibrator kit (Biocytex #7208) or Human IgG Calibrator Kit (Biocytex #CP010) according to the manufacturer's instructions.
The panel of tumor cells comprises Patient-derived tumor xenografts from different origins and tumor cell lines. FIG. 2 illustrates the expression profile and Table 4 summarizes the antibody binding capacity results.
The panel of tumor cells comprises Patient-derived tumor xenografts from different origins and tumor cell lines.

[2] = biological target: T2, Hybrid LAMP1 / glycan-deleted LAMP1 transmembrane proteins (Homo sapiens, UniProt P11279, A93T/T85V/V91T); test: Binding onto membrane-anchored hybrid or mutated LAMP1 proteins (293-F cells) by flow cytometry; parameters: species or system human/mouse; conditions: pXL6017 LAMP1_mseq5_ΔGYQTI; Table 18
T2 construct: expressed in transfected cells; host or cells: 293-F (HEK293-derived), transient transfection
T2 sequence (P11279 with tags, fused parts or gaps T85V/V91T/A93T): T1 sequence (P11279 29-417) with T57V, V63T, A65T, G385A, Y386A, Q387A, T388A, I389A
Description: (§1) Different LAMP1 proteins were expressed at the cell membrane of HEK293 cells after transient expression from mammalian plasmids encoding the entire coding sequence of LAMP1 deleted of the intracellular lysosome-targeting motif GYQTI and substituted by a 5-Ala repeat sequence.
(§2) Two days post transfection cells were processed, analyzed by flow cytometry (Guava® easyCyte™ 8HT) as mentioned in example 4.7, and the mean fluorescence was recorded. This fluorescence represents a semi-quantitative assessment of binding.

[3] = biological target: T3, Hybrid LAMP1 / glycan-deleted LAMP1 transmembrane proteins (Mus musculus, UniProt P11438, E181G/G176S/K100R/K180R/L93T/N177S/S175N/T102A/Y92H); test: as above; parameters: species or system human/mouse; conditions: pXL6041 mLAMP1_hseq6-11_ΔGYQTI
T3 construct: expressed in transfected cells; host or cells: 293-F (HEK293-derived), transient transfection
T3 sequence (P11438 with tags, fused parts or gaps Y92H/L93T/K100R/T102A/S175N/G176S/N177S/K180R/E181G): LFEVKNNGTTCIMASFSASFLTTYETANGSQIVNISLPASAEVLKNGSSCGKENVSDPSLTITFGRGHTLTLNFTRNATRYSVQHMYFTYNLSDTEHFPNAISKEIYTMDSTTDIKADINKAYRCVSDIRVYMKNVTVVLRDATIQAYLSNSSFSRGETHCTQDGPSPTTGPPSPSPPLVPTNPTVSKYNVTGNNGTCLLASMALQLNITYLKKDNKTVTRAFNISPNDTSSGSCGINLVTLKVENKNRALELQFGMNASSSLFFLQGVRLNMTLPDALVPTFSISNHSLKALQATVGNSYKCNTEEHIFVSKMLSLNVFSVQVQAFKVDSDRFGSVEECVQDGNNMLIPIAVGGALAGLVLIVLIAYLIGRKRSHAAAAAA
Description: as §1, §2

[4] = biological target: T4, Hybrid LAMP1 / glycan-deleted LAMP1 transmembrane proteins (Homo sapiens, UniProt P11279, A49S/D55E/N45S/N53T/S51L/V52T); test: as above; parameters: species or system human/mouse; conditions: pXL6013 LAMP1_mseq2_ΔGYQTI; Table 18
T4 construct: expressed in transfected cells; host or cells: 293-F (HEK293-derived), transient transfection
T4 sequence (P11279 with tags, fused parts or gaps N45S/A49S/S51L/V52T/N53T/D55E): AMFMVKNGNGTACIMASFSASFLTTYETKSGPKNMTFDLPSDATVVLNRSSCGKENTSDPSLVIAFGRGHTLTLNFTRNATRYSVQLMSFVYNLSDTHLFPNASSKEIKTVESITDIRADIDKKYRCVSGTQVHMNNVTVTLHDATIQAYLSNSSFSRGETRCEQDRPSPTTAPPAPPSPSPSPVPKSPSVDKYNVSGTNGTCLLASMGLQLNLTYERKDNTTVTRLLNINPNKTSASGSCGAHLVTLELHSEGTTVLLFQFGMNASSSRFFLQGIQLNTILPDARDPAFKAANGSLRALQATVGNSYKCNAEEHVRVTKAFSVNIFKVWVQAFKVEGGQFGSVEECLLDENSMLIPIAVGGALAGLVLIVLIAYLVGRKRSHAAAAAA
Description: as §1, §2

B1: MAb1: murine monoclonal anti-LAMP1 antibody, VH SEQ ID NO: 1, VL SEQ ID NO: 5 (antibody, V domains shown)
VH: QVQLQQSGAELVKPGASVKMSCKASGYIFTNYNIHWVKKSPGQGLEWIGAIYPGNGDAPYSQKFKDKATLTADKSSSTTYMQLSRLTSEDSAVYYCVRANWDVAFAYWGQGTLVSVSA
VL: DIQMTQSPPSLSASLGGKVTITCKASQDIDRYMAWYQDKPGKGPRLLIHDTSTLQPGIPSRFSGSGSGRDYSFSISNLEPEDIATYYCLQYDNLWTFGGGTKLEIK
modifications: Antibody Fragment; antibody fragment
B1 was tested, and the “Antibody Binding Capacity (ABC)” value ([1]; CR-IGR-034P/colorectal PDX) was 230,000, the “Antibody Binding Capacity (ABC)” value ([1]; CR-LRB-003P/colorectal PDX) was 25 000 and the “Antibody Binding Capacity (ABC)” value ([1]; CR-LRB-010P/colorectal PDX) was 140,000. The “Antibody Binding Capacity (ABC)” value ([1]; Colo205/colon cell line) was 6,000, the “Antibody Binding Capacity (ABC)” value ([1]; LS174T/colon cell line) was 6,000 and the “Antibody Binding Capacity (ABC)” value ([1]; LUN-NIC-014/lung PDX) was 104,000. For the same molecule, the “Antibody Binding Capacity (ABC)” value ([1]; LUN-NIC-025/lung PDX) was 33,000, the “Antibody Binding Capacity (ABC)” value ([1]; OVA-IGR-0022/ovary PDX) was 67,000 and the “Antibody Binding Capacity (ABC)” value ([1]; STO-IND-006/stomach PDX) was 90,000. For the same molecule, the “Antibody Binding Capacity (ABC)” value ([1]; SW480/colon cell line) was 2,500, the Binding call [2] was “Binding” and the Mean fluorescence [2] was 846. The Binding call ([3]; Table 17 Experiment no1) was “Binding”, the Mean fluorescence ([3]; Table 17 Experiment no1) was 680 and the Binding call ([3]; Table 17 Experiment no2) was “binding”. The Mean fluorescence ([3]; Table 17 Experiment no2) was 211, the Binding call [4] was “Binding” and the Mean fluorescence [4] was 990.

B2: MAb2: murine monoclonal anti-LAMP1 antibody, VH SEQ ID NO: 8, VL SEQ ID NO: 12 (antibody, V domains shown)
VH: QVQLQQSAAELARPGASVKMSCKASGYTFTSYTMHWVKQRPGQGLEWIGYFNPSSGYPEYNQKFKDKTTLTADKSSNTAFIQLNSLTSEDSAVYYCSRGYYYGSRGYALDFWGQGASVTVSS
VL: NIVLTQSPVSLAVSLGQRATISCRASESVDINGNTFMHWYQQKPGQSPKLVIYAASNIESGVPARFSGSGSSTDFTFTIDPVEADDVATYYCQQNIEDPWTFGGGTKVEIK
modifications: antibod fragment; antibody fragment
For B2, the “Antibody Binding Capacity (ABC)” value ([1]; CR-IGR-034P/colorectal PDX) was 180,000, the “Antibody Binding Capacity (ABC)” value ([1]; CR-LRB-003P/colorectal PDX) was 22 000 and the “Antibody Binding Capacity (ABC)” value ([1]; CR-LRB-010P/colorectal PDX) was 95,000. For the same molecule, the “Antibody Binding Capacity (ABC)” value ([1]; Colo205/colon cell line) was 4,000, the “Antibody Binding Capacity (ABC)” value ([1]; LS174T/colon cell line) was 3,600 and the “Antibody Binding Capacity (ABC)” value ([1]; LUN-NIC-014/lung PDX) was 102,000. The “Antibody Binding Capacity (ABC)” value ([1]; LUN-NIC-025/lung PDX) was 27,000, the “Antibody Binding Capacity (ABC)” value ([1]; OVA-IGR-0022/ovary PDX) was 60,000 and the “Antibody Binding Capacity (ABC)” value ([1]; STO-IND-006/stomach PDX) was 64,000. For the same molecule, the “Antibody Binding Capacity (ABC)” value ([1]; SW480/colon cell line) was 1,700, the Binding call [2] was “Binding” and the Mean fluorescence [2] was 629. For the same molecule, the Binding call ([3]; Table 17 Experiment no1) was “No binding”, the Mean fluorescence ([3]; Table 17 Experiment no1) was 28 and the Binding call [4] was “Binding”. For the same molecule, the Mean fluorescence [4] was 694.

From US9809653B2, “Anti-LAMP1 antibodies and antibody drug conjugates, and uses thereof” (SANOFI, priority 2012, dated 2017)
